Experiments:
AP2 μ2 160-435 [1] = target: AP2 μ2 160-435 (UniProt Q96CW1); assay: FP displacement of FITC-ATG9A probe; details: reference: unphosphorylated peptide; sites Y781
AP2 μ2 160-435 [2] = target: AP2 μ2 160-435 (UniProt Q96CW1); assay: fluorescence polarisation
[3] = target: FITC-labeled ACE2(775–790) peptide, pTyr781 (human); assay: fluorescence polarisation
[4] = target: FITC-labeled ACE2(775–790) peptide, unphosphorylated (human); assay: fluorescence polarisation
[5] = target: FITC-labeled ACE2(775–790) peptide, pSer783 (human); assay: fluorescence polarisation
[6] = target: MAP1LC3A ATG8 (2–119) (human) (UniProt Q9H492); assay: fluorescence polarisation
[7] = target: MAP1LC3C ATG8 (2–125) (human) (UniProt Q9BXW4); assay: fluorescence polarisation
Sequence of MAP1LC3C ATG8 (2–125) (human) (Q9BXW4 2-125): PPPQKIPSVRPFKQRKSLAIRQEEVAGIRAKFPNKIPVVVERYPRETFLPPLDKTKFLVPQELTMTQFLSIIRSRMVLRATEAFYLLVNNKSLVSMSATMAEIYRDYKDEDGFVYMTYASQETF

[8] = target: MAP1LC3B ATG8 (2–119) (human) (UniProt Q9GZQ8); assay: fluorescence polarisation
[9] = target: GABARAP ATG8 (2-115) (human) (UniProt O95166); assay: fluorescence polarisation
Sequence of GABARAP ATG8 (2-115) (human) (O95166 2-115): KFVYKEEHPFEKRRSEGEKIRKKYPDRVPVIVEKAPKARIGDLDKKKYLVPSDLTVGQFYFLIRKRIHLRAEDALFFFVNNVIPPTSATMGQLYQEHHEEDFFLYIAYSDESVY

[10] = target: […]2 ATG8 (2–115) (human) (UniProt P60520); assay: fluorescence polarisation
Sequence of […]2 ATG8 (2–115) (human) (P60520 2-115): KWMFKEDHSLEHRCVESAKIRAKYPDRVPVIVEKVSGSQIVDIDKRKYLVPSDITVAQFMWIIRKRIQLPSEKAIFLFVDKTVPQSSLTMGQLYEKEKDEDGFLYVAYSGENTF

Substance	Kd [3]	Kd [4]	Kd [5]	Ki [6]	Ki [7]	Ki [8]	also measured
ACE2 775-790 (from UniProt Q9BYF1) pTyr781 peptide							Ki (AP2 μ2 160-435 [1]): lost; reference 101 ± 5
ACE2(775–790) peptide, unphosphorylated, unlabeled (displacing peptide)							Ki (AP2 μ2 160-435 [2]): 101 µM
AP2 μ2 (160–435) (from UniProt Q96CW1 160-435) (domain or fragment)	> 100 µM	60 µM	30 µM				
FYN SH2 (142–251) (from UniProt P06241 142-251) (domain or fragment)		> 100 µM	> 100 µM				
GABARAP ATG8 (2-115) (from UniProt O95166 2-115) (domain or fragment)	> 100 µM	> 100 µM	> 100 µM				
MAP1LC3A ATG8 (2–119) (from UniProt Q9H492 2-119) (domain or fragment)	> 100 µM	> 100 µM	> 100 µM				
NCK1 SH2 (275–377) (from UniProt P16333 275-377) (domain or fragment)	> 100 µM	> 100 µM	> 100 µM				
integrin β3 tail peptide, pSer778				29.4 µM	16.1 µM	> 100 µM	
integrin β3 tail peptide, pThr777				> 100 µM	73 µM	> 100 µM	Ki [9]: 47 µM
integrin β3 tail peptide, pThr779				> 100 µM	82 µM	> 100 µM	Ki [10]: > 100 µM
integrin β3 tail peptide, pThr779/pTyr785				8.5 µM	8 µM	15 µM	Ki [9]: 17.8 µM
integrin β3 tail peptide, pTyr785				38 µM	83 µM	81 µM	Ki [10]: 89 µM
integrin β3 tail peptide, unphosphorylated				> 100 µM	> 100 µM	> 100 µM	Ki [10]: > 100 µM; Ki [9]: > 100 µM
